This data set has as its target human serum albumin (HSA) (Homo sapiens) (UniProt P02768). The experiment in a line: ELONA. As to conditions: Nap-dU at all positions marked 6 (n); bead-based ELISA, buffer SB18 (5 mM MgCl2), 37 C.
In the case of “CTCTCCCAGGTCGAGCTGTACGCGTGTGTGACCTG [AL003]”, the dissociation constant (Kd) is 2.24 nM.

For TCCCAGGTCGAGCTGTACGCGTGTGTGACC [AL005], the equilibrium dissociation constant (Kd) was determined as 14.7 nM.

The sequence “CTCTCCCAGGTCGAGCTGTACGCGTGTGTGACCTGACGTG [AL002]” gave a Kd of 20.7 nM.

Regarding CAGGTCGAGCTGTACGCGTGTGTGACCTG [AL006], the Kd came out at 19 nM.

The record behind these values is US20240327848.
